# Assay results taken from patent US20240400663A1 (Regeneron, published 2024).
# Tests used:
# Test in all cases: cell-based or functional assay
# [1] = biological target: T1, PfRH5 of Plasmodium falciparum strain 7G8 (on live parasites) (Plasmodium falciparum)
# [2] = biological target: PfRH5 of Plasmodium falciparum strain D10 (on live parasites) (Plasmodium falciparum)
# [3] = biological target: T2, PfRH5 of Plasmodium falciparum strain Dd2 (on live parasites) (Plasmodium falciparum)
# [4] = biological target: T1, PfRH5 of Plasmodium falciparum strain …; remark: listed apart in the source
# [5] = biological target: PfRH5 of Plasmodium falciparum strain W2-mef (on live parasites) (Plasmodium falciparum)
# [6] = biological target: PfRH5 of Plasmodium falciparum strain HB3 (on live parasites) (Plasmodium falciparum)
# [7] = biological target: T3, PfRH5 of Plasmodium falciparum strain FCR-1/FVO (on live parasites) (Plasmodium falciparum)
# [8] = biological target: PfRH5 of Plasmodium falciparum strain Cam3.II (on live parasites) (Plasmodium falciparum)
# [9] = biological target: PfRH5 of Plasmodium falciparum strain RF7 (on live parasites) (Plasmodium falciparum)
# [10] = biological target: T3, PfRH5 of Plasmodium falciparum strain …; remark: listed apart in the source
# [11] = biological target: T2, PfRH5 of Plasmodium falciparum strain …; remark: listed apart in the source
Binder,"Max growth inhibition (%) 7G8, no chloroquine [1] [%]",Max growth inhibition (%) D10 [2] [%],Max growth inhibition (%) Dd2 [3] [%],Max growth inhibition (%) 7G8 [4] [%],Max growth inhibition (%) W2-mef [5] [%],Max growth inhibition (%) HB3 [6] [%],Max growth inhibition (%) FCR-1/FVO [7] [%],Max growth inhibition (%) Cam3.II [8] [%],Max growth inhibition (%) RF7 [9] [%],"Percent Maximum Growth Inhibition, FCR-1/FVO, mAb (6.67 µM) + AHIS (10%) [10] [%]","Percent Maximum Growth Inhibition, FCR-1/FVO, mAb (6.67 µM) + ANS (10%) [10] [%]","Percent Maximum Growth Inhibition, FCR-1/FVO, mAb (6.67 µM) + HHIS (10%) [10] [%]","Percent Maximum Growth Inhibition, FCR-1/FVO, mAb (6.67 µM) + HNS (10%) [10] [%]","Percent Maximum Growth Inhibition, FCR-1/FVO, mAb (6.67 µM) + No serum [10] [%]",Maximum growth inhibition (%) Dd2 [11] [%]
"H1H29089P (antibody, V domains shown) VH: EVQLVQSGAEVKKPGESLKISCKGSGYSFTSYWIVWVRQMPGKGLEWMGIIYPGDSDTRYSPSFQGQVTISADKSISTAYLQWSSLKASDTAMYYCARQDITGTTGFDYWGQGTLVTVSS VL: DIQMTQSPSSLSASVGDRVTITCRASQSIRNYLNWYQQKPGKAPKLLIYAASSLQSGVPSRFSGSGSGTDFTLTISSLQPEDFATYFCQQSYSTPFTFGPGTKVDIKR",51.1,82.3,71.3,70.1,66.4,59.1,66,56.2,28.9,84.3,75.7,85.2,85,85.3,–
"H1H29127P (antibody, V domains shown) VH: QVQLVESGGGVVQPGRSLRLSCAASGFTFSSYGMHWVRQAPGKGLEWVAAIWYDGSNKYYADSVKGRFTISRDNSKNTLYLQMNSLRAEDTAVYFCARGEHYYGSGPFDPWGQGTLVTVSS VL: DIQMTQSPSSLSASVGDRVTITCRASQSISNYLNWYQQKPGKAPKLLIFAASSLQSGVPSRFSGSGSGTDFTLTISSLQPEDFATYYCQQSYSSPLTFGGGTKVEIKR",–,74.4,64.7,61.2,53.6,59.4,61.1,47,25.7,–,–,–,–,–,56.9
"H1H29215P2 (antibody, V domains shown) VH: QVQLQQWGAGLLKPSETLSLTCAVSDESFSDYYWTWIRQPPGKGLEWIGEITHSGSTHYNPSLKSRVTLSVDTSKNHFSLSLNSVTAADTAIYYCARGGDYGGLLDYWGQGTLVTVSS VL: not shown",–,35.8,22.8,33.2,37.2,30.1,54,27.2,11.3,–,–,–,–,–,–
"H1H29109P (antibody, V domains shown) VH: EVQLVESGGGLVQPGRSLRLSCAVSGFTFDDYAMHWVRQAPGKGLEWVSGISWNSGDIDYADSVKGRFTISRDNAKNSLYLQMNSLRAEDTALYYCAKDTLSGTGTTWYYFDYWGQGTLVTVSS VL: DIQLTQSPSFLSASVGDRVTITCWASQGISSYLIWYQQKPGKAPKLLIYAASTLQSGVPSRFSGSGSGTEFTLTISSLQPEDFATYYCQQVNSYPLTFGGGTKVEIKR",–,44.8,42,39,37.9,32.2,56.7,35.9,8.24,–,–,–,–,–,–
"H1H29187P2 (antibody, V domains shown) VH: QVQLVESGGGVVQPGRFLRLSCAASGFTFSNSGMHWVRQAPGKGLEWVAGIWHDGSYKYYVDSVKGRFTISRDNSKNTLFLQMNSLRAEDTAVYYCARDDYYASGTSVDVWGQGTTVTVSS VL: not shown",49.3,79.6,66,–,67.3,63.9,72.2,49.2,32.7,89.4,80.1,85.4,85.9,85.3,–
"H1H29106P (antibody, V domains shown) VH: QVQLVESGGGVVQSGRSLRLSCAASSFTFSSYGMHWVRQSPGKGLEWVAVISYDGSNKYYGDFVRGRFTISRDNSKNTLYLQMNSLRAEDTAMYYCAREVRRYYYYGMDVWGQGTTVTVSS VL: not shown",–,74.9,54,55.5,48.9,48.4,54.3,51.7,27.4,–,–,–,–,–,–
"H1H29209P2 (antibody, V domains shown) VH: QLQLQESGPGLVKPSETLSLTCTVSGGSISSRSHYWGWIRQPPGKGLEWIGSIYYSGSTYYNPSLKSRVTISVDTSKNQFSLKLSSVTAADTAVYYCARLGWYAEEAFEIWGQGTMVTVSS VL: not shown",–,72.7,38.1,49.9,39.6,52.4,19.2,47.3,11.9,–,–,–,–,–,–
"H1H29214P2 (antibody, V domains shown) VH: QLQLQESGPGLVKPSETLSLTCTVSGGSISSSSYYWGWIRQPPGKGLEWIGSIYYSGSTYYNPSLKSRVTISVDTSKNQFSLKLSSVTAADTAVYYCARQGRWERENFDYWGQGTLVTVSS VL: not shown",–,76.5,47.2,56.7,52.7,59.1,13.1,46.7,11.2,–,–,–,–,–,–
"H1H29100P (antibody, V domains shown) VH: QLQLQESGPGLVKPSETLSLTCTVSGGSISSSSYYWGWIRQPPGKGLEWIGIIYYSGSTYYNPSLKSRVTISVDTSKNQFSLKLSSVTAADTAVYYCARQDREALFDYWGQGTLVTVSS VL: EIVLTQSPDFQSVTPKEKVTITCRASQRIGSSLHWYQQKPDQSPKLLIKYASQSFSGVPSRFSGSGSGTDFTLTINSLEAEDAATYYCHQSSTLPTFGQGTRLEIKR",48.9,81.7,64.6,66.4,67.3,62.6,66.9,52.4,17,82.5,73.2,81.9,82.4,83.9,65.7
"H1H29143P (antibody, V domains shown) VH: EVQLVESGGGLVQPGGSLRLSCAASGFTFNNYAMSWVRQAPGRGLEWVSAISGSGDSTYYSDSVKGRFTISRDNSKNTLYLQMNSLRAEDTAVYYCAKDQGLYYYGSGSFDYWGQGTLVTVSS VL: not shown",–,79.4,62.7,61.9,58.3,60.9,67.2,53.2,–,–,–,–,–,–,56
"H1H29147P2 (antibody, V domains shown) VH: QVQLVQSGAEVKNPGSSVKVSCKASGGTFSSYTINWVRQAPGQGLEWMGGIIPLYGTANYAQKFQARVTISTDESTNTAYMELSNLRFEDTAVYFCASTLELRAFDAFDIWGQGTMVTVSS VL: not shown",47.3,81.4,65.3,65.2,64.7,64.8,70.3,51.9,31.4,86.2,80.3,83.4,85.6,84.1,–
"H1H29104P (antibody, V domains shown) VH: EVQLVESGGGLVQPGRSLRLSCAASGFRFDDYAMHWVRQAPGKGLEWVSGINWNSGGKGYADSVQGRFTISRDNAKNSLYLQMNSLRTEDTALYYCAKDRGIAARLLSRDAFDMWGQGTMVTVSS VL: DIQLTQSPSFLSASVGDRVTITCWASQDVSSYLAWYQQKPGKSPKLLIFAASTLQGGIPSRFSGSGSGTEFTLTISSLRPEDFATYYCQHLNTYPYTFGQGTKLEIKR",–,55.7,61.3,35.2,47.4,39.8,67.4,50,23.6,–,–,–,–,–,54.1
